Test results as given in patent US20260250404A1 (Genmab, published 2026).
Residue numbers refer to the chain shown, from its start. Names may count otherwise.

Legend:
[1] = target: T1, IgG1-CD27-A-P329R-E345R-LHalo (HaloTag NanoBret 618 ligand bound to the HaloTag); test: NanoBRET proximity assay between NanoLuc- and HaloTag-tagged antibodies (5 µg/mL each) bound on cells, corrected BRET (mBU)
T1 construct: Light chain fused to HaloTag; heavy chain as for m63

[2] = target: T2, recombinant His-tagged human FcγRIIa, 167-Arg [R] / R131 variant (human, UniProt P12318 34-218, limits assumed); test: SPR (Biacore), His-tagged FcγR captured on anti-His chip, antibody injected, resonance units after background subtraction
T2 construct: catalogue numbers differ; also called FcγRIIa-R; FcγRIIa-R131
T2 sequence (looked up): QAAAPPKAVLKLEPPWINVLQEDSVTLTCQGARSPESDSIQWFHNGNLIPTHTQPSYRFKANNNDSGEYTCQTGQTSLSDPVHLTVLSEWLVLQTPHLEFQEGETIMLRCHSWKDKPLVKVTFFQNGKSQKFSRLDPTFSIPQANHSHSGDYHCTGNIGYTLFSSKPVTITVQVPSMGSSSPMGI

[3] = target: T3, recombinant His-tagged human FcγRIIa, 167-His [H] / H131 variant (human, UniProt P12318 34-218, limits assumed); test: as above
T3 construct: catalogue numbers differ; also called FcγRIIa-H; FcγRIIa-H131
T3 sequence (looked up): T2 sequence (looked up) with R134H

[4] = target: T4, recombinant His-tagged human FcγRIIIa, 176-Phe [F] / F158 variant (human, UniProt P08637 17-208); test: as above
T4 construct: also called FcγRIIIa-F; FcγRIIIa-F158

[5] = target: T5, recombinant His-tagged human FcγRIIIa, 176-Val [V] / V158 variant (human, UniProt P08637 17-208); test: as above
T5 construct: also called FcγRIIIa-V; FcγRIIIa-V158

[6] = target: T6, recombinant His-tagged human FcγRIIb (human, UniProt P31994 43-217, limits assumed); test: as above
T6 sequence (looked up): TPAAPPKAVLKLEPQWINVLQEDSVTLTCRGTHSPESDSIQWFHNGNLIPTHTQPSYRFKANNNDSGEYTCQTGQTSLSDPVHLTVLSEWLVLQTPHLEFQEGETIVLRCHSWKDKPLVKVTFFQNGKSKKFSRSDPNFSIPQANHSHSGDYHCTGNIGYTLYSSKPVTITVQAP

[7] = target: recombinant His-tagged human FcγRIa (Sino Biological 10256-H08S-B) (human, UniProt P12314 16-288); test: as above
[8] = target: T7, human FcγRIa on the cell surface (transfected CHO-S cells, M0/M1 macrophages, hMDM, FcγRI effector reporter … (human, UniProt P12314 16-374)); test: flow cytometry on CHO-S cells transiently expressing human FcγRIa, PE goat anti-human IgG F(ab')2, % PE+ cells
T7 construct: whole, on cells; also called CD64

[9] = target: T5, recombinant His-tagged human FcγRIIIa, …; test: SPR (Biacore 8K), His-tagged FcγR captured on anti-His chip, antibody injected, binding response (RU), n=3
[10] = target: T4, recombinant His-tagged human FcγRIIIa, …; test: as above
[11] = target: cynomolgus monkey PD-1 on transfected CHO-S cells (cynomolgus monkey, UniProt B0LAJ3 25-288); test: flow cytometry on CHO-S cells transiently transfected with cynomolgus monkey PD-1, PE goat anti-human IgG F(ab')2, gMFI (PE)
[12] = target: T8, human complement protein C1q (from normal human serum) (human, UniProt P02745 23-245; P02746 28-253; P02747 29-245); test: flow cytometry, C1q (20% normal human serum) binding to antibody bound on human T cells, FITC anti-C1q
T8 construct: Native C1q supplied as 20% normal human serum

[13] = target: T8, human complement protein C1q (from …); test: flow cytometry, C1q (20% normal human serum) binding to antibody bound on human T cells, FITC anti-C1q, median MFI FITC
[14] = target: T6, recombinant His-tagged human FcγRIIb; test: SPR (Biacore 8K), His-tagged FcγR captured on anti-His chip, antibody injected, binding response (RU), n=3
[15] = target: T3, recombinant His-tagged human FcγRIIa, …; test: as above
[16] = target: T2, recombinant His-tagged human FcγRIIa, …; test: as above
[17] = target: T9, recombinant human neonatal Fc receptor FcRn (SinoBiological CT071-H27H-B) (human, UniProt P55899 24-297; P61769 21-119); test: SPR (Biacore 8K) at pH 6.0; FcRn captured by anti-His, antibody as analyte; average of three measurements; pH 6.0
T9 construct: Composition of the bought protein is not described

[18] = target: T10, cynomolgus monkey CD27 on the cell surface (T cells, transfected HEK293F cells) (cynomolgus monkey, UniProt P26842 20-260 (human entry)); test: flow cytometry on HEK293F cells transfected with cynomolgus monkey CD27, PE-labeled goat anti-human IgG, median MFI PE
T10 construct: also called Cyno CD27
T10 chain: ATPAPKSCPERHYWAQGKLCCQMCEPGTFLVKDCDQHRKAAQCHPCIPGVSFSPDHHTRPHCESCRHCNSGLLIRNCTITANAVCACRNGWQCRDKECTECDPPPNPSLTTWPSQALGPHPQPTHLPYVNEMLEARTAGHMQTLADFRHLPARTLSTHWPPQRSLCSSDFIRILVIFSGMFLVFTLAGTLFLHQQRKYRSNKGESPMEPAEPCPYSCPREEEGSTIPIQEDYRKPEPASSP

[19] = target: human CD27-A59T variant on transfected HEK293F cells (human, UniProt P26842 20-260); test: flow cytometry on HEK293F cells transfected with human CD27-A59T, PE-labeled goat anti-human IgG, median MFI PE
[20] = target: T11, human CD27 on the cell surface (T cells, transfected HEK293F cells, Daudi cells, NFκB-luc2/CD27 Jurkat cells) (human, UniProt P26842 20-240); test: flow cytometry on T cells in human PBMC (endogenous CD27), PE-labeled goat anti-human IgG, median MFI PE
T11 construct: Full length human CD27, endogenous or transfected; also called TNFRSF7

[21] = target: T11, human CD27 on the cell surface (T …); test: flow cytometry on HEK293F cells transfected with human CD27, PE-labeled goat anti-human IgG, median MFI PE
[22] = target: T10, cynomolgus monkey CD27 on the cell …; test: flow cytometry on T cells in cynomolgus monkey PBMC (endogenous CD27), PE-labeled goat anti-human IgG, median MFI PE

T8 sequence (P02745 23-245, chain 1 of 3): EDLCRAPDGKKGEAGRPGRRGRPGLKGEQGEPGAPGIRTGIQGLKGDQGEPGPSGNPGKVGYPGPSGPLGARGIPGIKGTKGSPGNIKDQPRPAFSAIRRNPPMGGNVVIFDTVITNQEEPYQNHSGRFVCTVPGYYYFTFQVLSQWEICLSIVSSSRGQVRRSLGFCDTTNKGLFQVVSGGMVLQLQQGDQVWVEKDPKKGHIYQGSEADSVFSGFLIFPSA
T8 sequence (P02746 28-253, chain 2 of 3): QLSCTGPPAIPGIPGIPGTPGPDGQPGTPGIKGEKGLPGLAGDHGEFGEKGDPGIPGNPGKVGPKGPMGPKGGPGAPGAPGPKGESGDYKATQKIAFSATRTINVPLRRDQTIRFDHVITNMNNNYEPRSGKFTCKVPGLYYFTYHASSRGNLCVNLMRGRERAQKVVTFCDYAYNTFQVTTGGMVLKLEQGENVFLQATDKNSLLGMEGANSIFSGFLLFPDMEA
T8 sequence (P02747 29-245, chain 3 of 3): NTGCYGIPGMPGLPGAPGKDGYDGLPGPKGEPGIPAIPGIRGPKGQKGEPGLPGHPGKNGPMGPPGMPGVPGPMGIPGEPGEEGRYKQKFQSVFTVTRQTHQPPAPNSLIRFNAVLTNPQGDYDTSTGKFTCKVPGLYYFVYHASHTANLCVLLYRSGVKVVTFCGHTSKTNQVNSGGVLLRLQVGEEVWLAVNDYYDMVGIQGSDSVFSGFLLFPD
T5 sequence (P08637 other isoform, or with tags, fused parts or gaps mutant limits assumed): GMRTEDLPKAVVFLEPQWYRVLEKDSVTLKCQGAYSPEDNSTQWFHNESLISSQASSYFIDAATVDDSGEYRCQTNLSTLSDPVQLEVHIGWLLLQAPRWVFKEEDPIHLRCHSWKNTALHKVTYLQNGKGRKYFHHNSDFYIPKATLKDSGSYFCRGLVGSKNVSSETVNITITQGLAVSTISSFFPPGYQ
T4 sequence (P08637 17-208 limits assumed, change not shown): as the sequence (P08637 other isoform, or with tags, fused parts or gaps mutant limits assumed) above, with V160F counted along it
T7 sequence (P12314 16-374): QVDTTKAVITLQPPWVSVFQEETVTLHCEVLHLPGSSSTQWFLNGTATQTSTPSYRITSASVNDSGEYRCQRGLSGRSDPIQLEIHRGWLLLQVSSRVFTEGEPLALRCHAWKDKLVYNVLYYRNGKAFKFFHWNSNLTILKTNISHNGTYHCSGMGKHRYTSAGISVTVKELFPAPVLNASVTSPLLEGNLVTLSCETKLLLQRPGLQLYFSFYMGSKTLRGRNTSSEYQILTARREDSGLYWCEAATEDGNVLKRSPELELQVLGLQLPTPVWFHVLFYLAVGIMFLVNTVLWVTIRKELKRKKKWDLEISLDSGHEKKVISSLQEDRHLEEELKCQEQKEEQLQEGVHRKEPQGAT
recombinant His-tagged human FcγRIa (Sino Biological 10256-H08S-B), sequence (P12314 16-288 limits assumed, stated change not applied): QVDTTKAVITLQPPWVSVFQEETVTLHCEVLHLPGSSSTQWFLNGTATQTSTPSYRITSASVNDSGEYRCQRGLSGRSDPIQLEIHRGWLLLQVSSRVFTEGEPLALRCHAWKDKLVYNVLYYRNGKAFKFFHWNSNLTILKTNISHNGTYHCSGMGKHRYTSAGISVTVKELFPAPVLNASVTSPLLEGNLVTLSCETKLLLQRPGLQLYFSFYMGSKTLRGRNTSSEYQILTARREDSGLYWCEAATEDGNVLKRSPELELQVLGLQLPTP
T1 sequence (heavy, as listed by the source): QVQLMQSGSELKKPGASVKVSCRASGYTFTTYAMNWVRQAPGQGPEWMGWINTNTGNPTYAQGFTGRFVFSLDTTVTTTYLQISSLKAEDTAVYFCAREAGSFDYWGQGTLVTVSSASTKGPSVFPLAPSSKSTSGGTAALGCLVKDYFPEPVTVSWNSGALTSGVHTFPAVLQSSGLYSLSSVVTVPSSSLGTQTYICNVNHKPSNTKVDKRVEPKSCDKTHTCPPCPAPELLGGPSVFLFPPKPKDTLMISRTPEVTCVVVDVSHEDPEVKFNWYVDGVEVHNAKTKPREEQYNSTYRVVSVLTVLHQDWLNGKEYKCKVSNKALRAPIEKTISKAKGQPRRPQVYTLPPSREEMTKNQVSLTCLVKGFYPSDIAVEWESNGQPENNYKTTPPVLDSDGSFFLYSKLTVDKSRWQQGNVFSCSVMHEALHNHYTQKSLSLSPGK
cynomolgus monkey PD-1 on transfected CHO-S cells, sequence (B0LAJ3 entry or part of it limits assumed): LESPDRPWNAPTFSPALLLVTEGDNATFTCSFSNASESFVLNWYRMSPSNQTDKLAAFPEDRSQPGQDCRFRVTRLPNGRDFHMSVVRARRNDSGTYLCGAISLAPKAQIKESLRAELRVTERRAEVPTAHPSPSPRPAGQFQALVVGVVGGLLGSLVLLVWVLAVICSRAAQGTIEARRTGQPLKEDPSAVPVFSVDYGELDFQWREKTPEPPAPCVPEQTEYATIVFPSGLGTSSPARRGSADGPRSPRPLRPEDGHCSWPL

B1: IgG1-CD27-A-P329R-E345R-LNLuc (antibody)
heavy: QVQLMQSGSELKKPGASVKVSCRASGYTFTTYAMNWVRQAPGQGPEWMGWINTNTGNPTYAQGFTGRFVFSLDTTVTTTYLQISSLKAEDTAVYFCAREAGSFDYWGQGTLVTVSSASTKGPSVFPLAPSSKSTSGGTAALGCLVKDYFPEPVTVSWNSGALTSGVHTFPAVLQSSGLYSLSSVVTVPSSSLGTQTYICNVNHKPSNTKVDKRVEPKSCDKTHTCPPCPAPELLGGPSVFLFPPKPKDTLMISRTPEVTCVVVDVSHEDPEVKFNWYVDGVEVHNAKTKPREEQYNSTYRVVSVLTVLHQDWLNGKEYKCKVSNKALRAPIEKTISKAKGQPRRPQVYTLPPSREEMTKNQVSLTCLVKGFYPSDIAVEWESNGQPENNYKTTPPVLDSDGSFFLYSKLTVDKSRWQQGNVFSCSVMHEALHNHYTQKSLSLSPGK
light: QSALTQPASVSGSPGQSITISCTGTSSDVYYYNYVSWYQQHPGRAPKLVIYDVSNRPSGVSNRFSGSKSGNTASLTISGLRAEDEADYYCSSYTVNRVWVFGGGTKLTVLGQPKAAPSVTLFPPSSEELQANKATLVCLISDFYPGAVTVAWKADSSPVKAGVETTTPSKQSNNKYAASSYLSLTPEQWKSHRSYSCQVTHEGSTVEKTVAPTECSSLGSSGVFTLEDFVGDWRQTAGYNLDQVLEQGGVSSLFQNLGVSVTPIQRIVLSGENGLKIDIHVIIPYEGLSGDQMGQIEKIFKVVYPVDDHHFKVILHYGTLVIDGVTPNMIDYFGRPYEGIAVFDGKKITVTGTLWNGNKIIDERLINPDGSLLFRVTINGVTGWRLCERILA
B1: binds [1].

B2: IgG1-b12, anti-HIV gp120 antibody with wild-type IgG1 Fc (antibody)
heavy: not shown
light: EIVLTQSPGTLSLSPGERATFSCRSSHSIRSRRVAWYQHKPGQAPRLVIHGVSNRASGISDRFSGSGSGTDFTLTITRVEPEDFALYYCQVYGASSYTFGQGTKLERKRTVAAPSVFIFPPSDEQLKSGTASVVCLLNNFYPREAKVQWKVDNALQSGNSQESVTEQDSKDSTYSLSSTLTLSKADYEKHKVYACEVTHQGLSSPVTKSFNRGEC
notes: also called WT IgG1-b12; ctrl; copies: 2 + 2
B2: binds [2]; binds [3]; binds [4]. For the same binder, the binding result [5] was “binds”, the binding result [6] was “binds” and the “EC50 (read off the curve)” value [7] was about 60 nM.

B3: pembrolizumab (antibody, human IgG4 S228P, kappa)
heavy: not shown
light: EIVLTQSPATLSLSPGERATLSCRASKGVSTSGYSYLHWYQQKPGQAPRLLIYLASYLESGVPARFSGSGSGTDFTLTISSLEPEDFAVYYCQHSRDLPLTFGGGTKVEIKRTVAAPSVFIFPPSDEQLKSGTASVVCLLNNFYPREAKVQWKVDNALQSGNSQESVTEQDSKDSTYSLSSTLTLSKADYEKHKVYACEVTHQGLSSPVTKSFNRGEC
notes: also called Keytruda
With B3 the “EC50 (read off the curve)” value [8] was about 0.8 µg/mL, the binding result [9] was “binds” and the binding result [10] was “binds”. The “EC50 (read off the curve)” value [11] was about 0.05 µg/mL.

B4: IgG1-CD27-A (wild-type IgG1 Fc) (antibody)
heavy: not shown
light: QSALTQPASVSGSPGQSITISCTGTSSDVYYYNYVSWYQQHPGRAPKLVIYDVSNRPSGVSNRFSGSKSGNTASLTISGLRAEDEADYYCSSYTVNRVWVFGGGTKLTVLGQPKAAPSVTLFPPSSEELQANKATLVCLISDFYPGAVTVAWKADSSPVKAGVETTTPSKQSNNKYAASSYLSLTPEQWKSHRSYSCQVTHEGSTVEKTVAPTECS
notes: also called WT IgG1-CD27-A; IgG-CD27-A; copies: 2 + 2
B4: no binding (tested: 15 µg/mL) [12].

B5: IgG1-CD27-A-E345R (antibody)
heavy: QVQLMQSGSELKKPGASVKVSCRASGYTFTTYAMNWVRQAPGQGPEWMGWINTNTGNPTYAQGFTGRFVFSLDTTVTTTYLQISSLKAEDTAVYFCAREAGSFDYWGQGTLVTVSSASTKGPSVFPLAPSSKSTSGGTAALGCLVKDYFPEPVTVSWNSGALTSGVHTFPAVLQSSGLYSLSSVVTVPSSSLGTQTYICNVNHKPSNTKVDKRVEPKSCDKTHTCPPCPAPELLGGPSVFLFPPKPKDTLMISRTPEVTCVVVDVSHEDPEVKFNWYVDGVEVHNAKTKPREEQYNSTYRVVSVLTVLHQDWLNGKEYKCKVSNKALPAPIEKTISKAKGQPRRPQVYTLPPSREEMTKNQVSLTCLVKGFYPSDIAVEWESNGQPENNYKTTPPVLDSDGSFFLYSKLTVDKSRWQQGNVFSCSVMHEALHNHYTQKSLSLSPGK
light: B4 light
notes: Human IgG1 with E345R (Eu numbering); also called IgG-CD27-A-E345R; copies: 2 + 2
B5: binds [13].

B6: IgG1-CD27-A-E430G (antibody)
heavy: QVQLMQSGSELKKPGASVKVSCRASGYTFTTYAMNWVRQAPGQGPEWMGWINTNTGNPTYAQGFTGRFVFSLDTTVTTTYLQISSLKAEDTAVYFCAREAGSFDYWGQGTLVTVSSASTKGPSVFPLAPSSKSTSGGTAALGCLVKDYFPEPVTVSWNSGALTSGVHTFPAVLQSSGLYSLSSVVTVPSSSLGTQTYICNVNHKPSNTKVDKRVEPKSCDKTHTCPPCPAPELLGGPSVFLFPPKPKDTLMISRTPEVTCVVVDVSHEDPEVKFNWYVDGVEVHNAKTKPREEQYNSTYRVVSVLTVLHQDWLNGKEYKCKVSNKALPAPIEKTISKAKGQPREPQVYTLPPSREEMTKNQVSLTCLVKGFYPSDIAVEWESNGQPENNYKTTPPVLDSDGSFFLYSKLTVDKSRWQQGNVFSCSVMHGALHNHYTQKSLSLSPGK
light: B4 light
notes: Human IgG1 with E430G (Eu numbering); copies: 2 + 2
B6 was tested, and the “EC50 (read off the curve)” value [13] was about 0.03 µg/mL.

B7: nivolumab (antibody, human IgG4 S228P, kappa)
heavy: not shown
light: not shown
notes: also called Opdivo
B7: binds [14]; binds [15]; binds [16]. For the same binder, the “EC50 (read off the curve)” value [8] was about 0.2 µg/mL, the binding result [9] was “binds” and the Kd [17] was 133 nM. It also gave a koff [17] of 0.0689 s⁻¹ and a kon [17] of 518000 M⁻¹ s⁻¹.

B8: IgG1-CD27-A carrying F405L-L234F-L235E-D265A in the IgG Fc domain (antibody, V domains shown)
VH: QVQLMQSGSELKKPGASVKVSCRASGYTFTTYAMNWVRQAPGQGPEWMGWINTNTGNPTYAQGFTGRFVFSLDTTVTTTYLQISSLKAEDTAVYFCAREAGSFDYWGQGTLVTVSS
VL: QSALTQPASVSGSPGQSITISCTGTSSDVYYYNYVSWYQQHPGRAPKLVIYDVSNRPSGVSNRFSGSKSGNTASLTISGLRAEDEADYYCSSYTVNRVWVFGGGTKLTVL
With B8 the “EC50 (read off the curve)” value [18] was about 0.06 µg/mL, the “EC50 (read off the curve)” value [19] was about 0.2 µg/mL and the “EC50 (read off the curve)” value [20] was about 0.04 µg/mL. For the same binder, the “EC50 (read off the curve)” value [21] was about 0.1 µg/mL and the “EC50 (read off the curve)” value [22] was about 0.03 µg/mL.
